Drawing on publication PMC11646347, this text covers stoichiometry N for two molecules.

One test has as its target streptavidin (UniProt P22629). Description: native MS; native CZE online with ESI and a Q-Exactive UHMR Orbitrap; mixture of standard proteins and protein complexes; background electrolyte 25 mM ammonium acetate pH~7.0, sheath buffer 10 mM ammonium acetate pH~7.0; original sample (about 15 ng consumed) and a 50-fold dilution (0.1 ng CRP loaded).
The target in test [1] is T1, C-reactive protein, P02741.
T1 chain: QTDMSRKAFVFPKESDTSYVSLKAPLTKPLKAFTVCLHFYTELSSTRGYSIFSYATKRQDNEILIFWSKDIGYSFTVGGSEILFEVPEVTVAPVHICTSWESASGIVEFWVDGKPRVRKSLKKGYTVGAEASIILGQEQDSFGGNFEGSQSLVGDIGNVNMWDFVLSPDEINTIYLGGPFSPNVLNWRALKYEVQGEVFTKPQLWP
The test is described as above. The settings on record: remark: other sources report otherwise.

In the case of “streptavidin (from UniProt P22629 25-183) (natural protein)”, the stoichiometry N (as a rule, the number of molecules, sites or subunits per partner or assembly) with streptavidin was 4.

B1: C-reactive protein, P02741 19-224 (natural protein)
chain: T1 chain
For the molecule B1, the stoichiometry N in test [1] was found to be 5.
